Measurements: patent publication US20130023423, “TRANSPOSON NUCLEIC ACIDS COMPRISING A CALIBRATION SEQUENCE FOR DNA SEQUENCING” (Finnzymes Oy, published 2013)
Changes are numbered by the printed parent chain.

Key:
Conditions in all cases: chain copies: 4
MuA transposase [1] = molecular target: T1, MuA transposase (UniProt P07636 P07636:1-663); test: EMSA; transpososome complex band about 300 bp; 30 C 1 h, Tris pH 8, EDTA, NaCl, 10% DMSO; complexes fragment gDNA with 10 mM MgCl2 (FIG. 2)
MuA transposase [2] = molecular target: T1, MuA transposase; test: EMSA; complexes formed and active; 30 C 1 h
MuA transposase [3] = molecular target: T1, MuA transposase; test: EMSA; no complex formed, no transposition activity; 30 C 1 h
MuA transposase [4] = molecular target: T1, MuA transposase; test: EMSA; worked well in complex formation and gDNA fragmentation (FIG. 4)
MuA transposase [5] = molecular target: T1, MuA transposase; test: EMSA; worked well in complex formation and gDNA fragmentation; the cited figure shows fragmentation

T1 sequence (P07636 whole entry, the tested form may be a part, one chain of several): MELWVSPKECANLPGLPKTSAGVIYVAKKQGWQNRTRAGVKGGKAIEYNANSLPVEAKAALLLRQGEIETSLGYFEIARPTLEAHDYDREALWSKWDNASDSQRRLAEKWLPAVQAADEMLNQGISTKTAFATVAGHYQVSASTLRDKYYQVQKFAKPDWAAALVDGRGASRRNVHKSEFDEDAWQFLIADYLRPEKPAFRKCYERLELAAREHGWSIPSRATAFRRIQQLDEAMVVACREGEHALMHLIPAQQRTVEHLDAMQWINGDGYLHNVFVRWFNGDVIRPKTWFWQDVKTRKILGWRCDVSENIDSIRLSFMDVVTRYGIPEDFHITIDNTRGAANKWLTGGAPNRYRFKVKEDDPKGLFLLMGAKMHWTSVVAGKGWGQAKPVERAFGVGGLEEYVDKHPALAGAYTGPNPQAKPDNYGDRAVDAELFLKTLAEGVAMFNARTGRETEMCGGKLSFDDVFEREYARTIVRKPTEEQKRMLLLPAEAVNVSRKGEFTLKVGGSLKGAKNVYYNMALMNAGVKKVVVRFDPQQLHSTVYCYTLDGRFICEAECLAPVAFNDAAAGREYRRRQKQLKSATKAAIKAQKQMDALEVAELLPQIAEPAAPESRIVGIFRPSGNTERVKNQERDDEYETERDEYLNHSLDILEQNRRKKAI

B1: native Mu transposon end (dsDNA)
DNA 1: GTTTTCGCATTTATCGTGAAACGCTTTCGCGTTTTTCGTGCGCCGCTTCA
DNA 2: TGAAGCGGCGCACGAAAAACGCGAAAGCGTTTCACGATAAATGCGAAAAC
MuA transposase [1]
  binding result: binds

B2: Mu end with TGCA key (dsDNA)
DNA 1: B1 DNA 1 with T48G
DNA 2: B1 DNA 2 with A3C
MuA transposase [2]
  binding result: binds

B3: Mu end with 3' TCAG key (dsDNA)
DNA 1: B1 DNA 1 with T48C, C49A, A50G
DNA 2: B1 DNA 2 with T1C, G2T, A3G
MuA transposase [3]
  binding result: no binding

B4: Mu end with internal TCAG key (5th, 6th, 8th bases) (dsDNA)
DNA 1: B1 DNA 1 with C43T, G45A, C46G
DNA 2: B1 DNA 2 with G5C, C6T, G8A
MuA transposase [4]
  binding result: binds

B5: Mu end with GTCA key (dsDNA)
DNA 1: B1 DNA 1 with T47G
DNA 2: B1 DNA 2 with A4C
MuA transposase [2]
  binding result: binds

B6: Mu end modified at 10th and 11th bases (dsDNA)
DNA 1: B1 DNA 1 with G40C, C41A
DNA 2: B1 DNA 2 with G10T, C11G
MuA transposase [5]
  binding result: binds
